Numbering of substitutions follows the chain as printed. Names and notes keep the numbering of the source.
T1: FRETS-VWF73, P04275
T1 chain: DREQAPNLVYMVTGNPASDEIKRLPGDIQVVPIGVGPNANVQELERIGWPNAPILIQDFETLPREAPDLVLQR

B1: ADAMTS-13W688X mutant D343A (enzyme, human, UniProt Q76LX8 75-688, looked up)
chain: AAGGILHLELLVAVGPDVFQAHQEDTERYVLTNLNIGAELLRDPSLGAQFRVHLVKMVILTEPEGAPNITANLTSSLLSVCGWSQTINPEDDTDPGHADLVLYITRFDLELPDGNRQVRGVTQLGGACSPTWSCLITEDTGFDLGVTIAHEIGHSFGLEHDGAPGSGCGPSGHVMASDGAAPRAGLAWSPCSRRQLLSLLSAGRARCVWDPPRPQPGSAGHPPDAQPGLYYSANEQCRVAFGPKAVACTFAREHLDMCQALSCHTDPLAQSSCSRLLVPLLDGTECGVEKWCSKGRCRSLVELTPIAAVHGRWSSWGPRSPCSRSCGGGVVTRRRQCNNPRPAFGGRACVGADLQAEMCNTQACEKTQLEFMSQQCARTDGQPLRSSPGGASFYHWGAAVPHSQGDALCRHMCRAIGESFIMKRGDSFLDGTRCMPSGPREDGTLSLCVSGSCRTFGCDGRMDSQQVWDRCQVCGGDNSTCSPRKGSFTAGRAREYVTFLTVTPNLTSVYIANHRPLFTHLAVRIGGRYVVAGKMSISPNTTYPSLLEDGRVEYRVALTEDRLPRLEEIRIWGPLQEDADIQVYRRYGEEYGNLTRPDITFTYFQPKPRQAWVW
notes: Disintegrin-like domain mutant; also called D343(10); not shown: C-terminal FLAG tag
B2: ADAMTS-13W688X mutant R349A (enzyme, human, UniProt Q76LX8 75-688, looked up)
chain: B1 chain with A269D, R275A
notes: Disintegrin-like domain mutant; also called R349(11); not shown: C-terminal FLAG tag
B3: ADAMTS-13W688X mutant R660A (enzyme, human, UniProt Q76LX8 75-688, looked up)
chain: B1 chain with A269D, R586A
notes: Spacer domain mutant; also called R660(68); not shown: C-terminal FLAG tag
B4: ADAMTS-13W688X mutant D480A (enzyme, human, UniProt Q76LX8 75-688, looked up)
chain: B1 chain with A269D, D406A
notes: Cysteine-rich domain mutant; also called D480(24); not shown: C-terminal FLAG tag
B5: ADAMTS-13W688X mutant R488A (enzyme, human, UniProt Q76LX8 75-688, looked up)
chain: B1 chain with A269D, R414A
notes: Cysteine-rich domain mutant; also called R488(26); not shown: C-terminal FLAG tag
B6: ADAMTS-13W688X mutant R498A (enzyme, human, UniProt Q76LX8 75-688, looked up)
chain: B1 chain with A269D, R424A
notes: Cysteine-rich domain mutant; also called R498(29); not shown: C-terminal FLAG tag
B7: ADAMTS-13W688X mutant E327A (enzyme, human, UniProt Q76LX8 75-688, looked up)
chain: B1 chain with E253A, A269D
notes: Disintegrin-like domain mutant; also called E327(7); E327 mutant; not shown: C-terminal FLAG tag
B8: ADAMTS-13W688X mutant D635A (protein)
chain: B1 chain with A269D, D561A
B9: ADAMTS-13W688X mutant E634A (protein)
chain: B1 chain with A269D, E560A
B10: ADAMTS-13W688X mutant R370A (protein)
chain: B1 chain with A269D, R296A
B11: ADAMTS-13W688X mutant R568A (protein)
chain: B1 chain with A269D, R494A
B12: ADAMTS-13W688X mutant R326A (protein)
chain: B1 chain with R252A, A269D
B13: ADAMTS-13W688X mutant R659A (protein)
chain: B1 chain with A269D, R585A

Target: T2, von Willebrand factor derived from human plasma (human, UniProt P04275 764-2813)
T2 construct: mature; also called VWF; natural substrate VWF
Assay: ELISA, plasma VWF immobilized on plate, relative to wild type W688X
Protocol: Each of the purified mutants of Example 3 was evaluated for their binding ability to VWF derived from human plasma immobilized on ELISA plate as described in Non-patent reference 8. The concentration was normalized by sandwich ELISA using the anti-human ADAMTS-13 rabbit polyclonal antibody and an HRP labeled form of the anti-FLAGM2 murine monoclonal antibody (SIGMA CORPORATION) as described above and the VWF binding ability per unit concentration was quantified. Finally, the mutants were evaluated for a relative activity as compared to the specific activity of wild type W688X with no alanine substitution, the specific activity of which is 1.

binding result	Binder
binds	B1
binds	B2
binds	B3
binds	B4
binds	B5
binds	B6
binds	B7

Target: immunoglobulin G (IgG) fractions isolated from acquired TTP patients
Assay: not given

Binder	cleaving activity to FRETS-VWF73 per 1 min (ΔFU/min) with and without patient antibodies
B8	depending on patient antibody, K608A, E634A and D635A had a sufficient enzymatic activity
B9	depending on patient antibody, K608A, E634A and D635A had a sufficient enzymatic activity

Target: T1, FRETS-VWF73, P04275
Assay: not given

Binder	cleaving activity to FRETS-VWF73, relative activity against wild type W688X
B10	the elevated enzymatic activity was observed
B11	the elevated enzymatic activity was observed
B12	the elevated enzymatic activity was observed
B13	the elevated enzymatic activity was observed
B2	led to the significantly reduced enzyme activity
B6	led to the significantly reduced enzyme activity
